Where two headings read alike, the source gives them in different places.
Assays:
[1] = molecular target: T1, human TPBG protein, full-length, on the cell surface (human, UniProt Q13641 32-420); assay: cell-based or functional assay
T1 sequence (looked up): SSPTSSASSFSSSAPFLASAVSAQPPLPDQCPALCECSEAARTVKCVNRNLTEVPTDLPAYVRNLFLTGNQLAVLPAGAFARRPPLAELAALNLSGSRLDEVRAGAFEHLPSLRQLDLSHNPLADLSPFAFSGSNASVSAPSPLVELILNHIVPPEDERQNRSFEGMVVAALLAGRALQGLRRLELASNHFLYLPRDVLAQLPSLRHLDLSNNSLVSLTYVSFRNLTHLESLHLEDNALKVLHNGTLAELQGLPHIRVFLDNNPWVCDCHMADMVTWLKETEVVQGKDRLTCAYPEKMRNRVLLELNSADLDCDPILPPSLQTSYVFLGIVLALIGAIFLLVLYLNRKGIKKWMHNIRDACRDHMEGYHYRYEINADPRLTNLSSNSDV

[2] = molecular target: T1, human TPBG protein, full-length, on the …; assay: cell-based or functional assay; remark: listed apart in the source
human TPBG-hFc protein = molecular target: T2, human TPBG-hFc protein (human, UniProt Q13641 32-355); assay: ELISA, coated human TPBG-hFc
T2 construct: range 32-355; Expressed in HEK293 cells, purified on protein A; also called immunogen A; hFc tagged TPBG protein; not shown: human IgG Fc fragment of the pCpC vector
T2 sequence (looked up): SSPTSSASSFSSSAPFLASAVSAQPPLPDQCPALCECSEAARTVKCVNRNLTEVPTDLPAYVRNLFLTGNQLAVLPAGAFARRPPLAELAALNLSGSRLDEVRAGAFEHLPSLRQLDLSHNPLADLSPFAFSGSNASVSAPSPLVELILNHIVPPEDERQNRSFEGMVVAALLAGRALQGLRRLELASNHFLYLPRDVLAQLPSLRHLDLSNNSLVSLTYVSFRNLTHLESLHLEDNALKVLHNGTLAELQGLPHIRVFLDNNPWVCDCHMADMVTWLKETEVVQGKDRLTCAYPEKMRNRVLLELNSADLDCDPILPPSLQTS
Description: The purified human TPBG-hFc obtained from step (1) diluting with PBS to a final concentration of 1.0 μg/mL was aliquoted into a 96-well ELISA plate at 100 μL per well, and sealed with a parafilm and incubated at 4° C. overnight. The plate was washed twice with plate washing buffer (PBS containing 0.01% (v/v) Tween 20), and blocked with blocking buffer (PBS containing 0.01% (v/v) Tween 20 and 1% (w/w) BSA) at room temperature for 2 h. The blocking buffer was discarded, and […] per well of the purified antibody TPBG was added. After incubating at 37° C. for 2 h, the plate was washed for three times with plate washing buffer (PBS containing 0.01% (v/v) Tween 20). HRP (horseradish peroxidase)-labeled secondary antibody (purchased from Sigma) was added and incubated at 37° C. for 2 h, and the plate was washed for three times using plate washing buffer (PBS containing 0.01% (v/v) Tween 20). 100 μL of TMB substrate was aliquoted into each well, incubated at room temperature for 30 min, and 100 μL of stop buffer (1.0 N HCl) per well was subsequently added. A_{450 nm} values were read using the ELISA plate reader (SpectraMax 384plus purchased from Molecular Device), and the results were shown in Table 5. […] In Table 5 the IgG control herein is a mice IgG control, the data in the Table are OD_{450 nm} values, and Blank represents the OD_{450 nm} value of PBS buffer in the plate.
The purified humanized TPBG antibody obtained from Embodiment 1 was reacted with human TPBG-hFc, for the method, see (5) Identification of lead antibody in Embodiment 1. The EC50 in Table 11 and Table 12 are calculated according to the OD450 nm value of the h12B12 variants and the h28D4 variants, respectively. […] FIGS. 7A and 7B are the binding reactions of purified humanized h12B12 variants to human TBPG-hFc protein, and FIGS. 8A and 8B are the binding reactions of the purified humanized h28D4 variants to human TBPG-hFc protein.

[3] = molecular target: T3, human TPBG antigen immobilized on a CM5 chip (human, UniProt Q13641 32-355, limits assumed); assay: SPR (Biacore), human TPBG antigen immobilized on CM5 chip
T3 sequence (looked up): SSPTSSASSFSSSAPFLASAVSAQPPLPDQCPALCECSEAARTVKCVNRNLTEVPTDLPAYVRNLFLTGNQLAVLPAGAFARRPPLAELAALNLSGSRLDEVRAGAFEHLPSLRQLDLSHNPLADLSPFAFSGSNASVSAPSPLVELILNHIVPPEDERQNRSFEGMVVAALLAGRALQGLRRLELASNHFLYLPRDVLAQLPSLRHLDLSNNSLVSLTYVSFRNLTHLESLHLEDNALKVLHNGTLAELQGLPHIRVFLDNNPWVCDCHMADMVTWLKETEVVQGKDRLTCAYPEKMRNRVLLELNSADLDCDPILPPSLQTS
Description: To assess the binding specificity and affinity of the humanized anti-TPBG antibody, Biacore analysis was performed using human TPBG antigen immobilized on a CM5 chip. Biacore technique utilizes the change in the refractive index of surface layer after antibody binding to the TPBG antigen immobilized on the surface layer. The binding was determined by surface plasmon resonance (SPR) through detecting the laser refracted from the surface. Non-specific and specific interactions were distinguished by analysis of signal kinetics binding rate and dissociation rate. Chimeric antibodies 12B12 and 28D4 were used as controls.

B1: Chimeric Antibody 28D4-MMAF (antibody, V domains shown)
VH: DVQLVESGGGLVRPGGSLKLSCAASGFTFSNYVMSWARQSPEKRLEWVAEISTGGSHTYYSDTVTGRFTISRDNAKKALYLEMSSLRSEDTAIYYCIMFYYGSSYSMDYWGQGTSVTVSS
VL: DIQMTQSTSSLSASLGDRITISCRASQDIRNYLNWYQQKPDGTVKLLIYHTSRLHSGVPSRFSGSGSGTDYSLTISNLEQEDIATYFCQQGDTLPLTFGAGTRLELK
modifications: MC-MMAF on cysteines reduced with TCEP (sites not given), DAR 3.0-5.0 per antibody
- IC50 of cell killing, NCI-H1568 cells (CellTiter-Glo, 5 days) [1]: 91 pM

B2: Humanized Antibody 12B12-12-MMAE (antibody, V domains shown)
VH: EVQLVESGGGLVQPGGSLRLSCAASGFTFSNFGMHWVRQAPGKGLEWVSYISSGSTSFYYADTVKGRFTISRDNAKNSLYLQMNSLRDEDTAVYYCARTNSLLRGFFDAWGQGTTVTVSS
VL: DIVLTQTPLSLSVTPGQPASISCRASQSVSSSSYTYLHWYLQKPGQPPQLLIKSASNLESGVPDRFSGSGSGTDFTLKISRVEAEDVGVYYCQHSWEIPLTFGQGTKLEIK
modifications: MC-VC-PAB-MMAE on cysteines reduced with TCEP (sites not given), DAR about 3.0-5.0 per antibody
- IC50 of cell killing, MDA-MB-468 cells (CellTiter-Glo, 5 days) [2]: 270 pM
- IC50 of cell killing, NCI-H1568 cells (CellTiter-Glo, 5 days) [2]: 430 pM
- IC50 of cell killing, NCI-H1975 cells (CellTiter-Glo, 5 days) [2]: 1200 pM

B3: Humanized Antibody 12B12-12-DM1 (antibody, V domains shown)
VH: EVQLVESGGGLVQPGGSLRLSCAASGFTFSNFGMHWVRQAPGKGLEWVSYISSGSTSFYYADTVKGRFTISRDNAKNSLYLQMNSLRDEDTAVYYCARTNSLLRGFFDAWGQGTTVTVSS
VL: DIVLTQTPLSLSVTPGQPASISCRASQSVSSSSYTYLHWYLQKPGQPPQLLIKSASNLESGVPDRFSGSGSGTDFTLKISRVEAEDVGVYYCQHSWEIPLTFGQGTKLEIK
modifications: SMCC-DM1 (sites not given), DAR about 3.0-5.0 per antibody
- IC50 of cell killing, MDA-MB-468 cells (CellTiter-Glo, 5 days) [2]: 440 pM
- IC50 of cell killing, NCI-H1568 cells (CellTiter-Glo, 5 days) [2]: 380 pM
- IC50 of cell killing, NCI-H1975 cells (CellTiter-Glo, 5 days) [2]: 5930 pM

B4: Humanized antibody 12B12-4 (antibody, V domains shown)
VH: EVQLVESGGGLVQPGGSLRLSCAASGFTFSNFGMHWVRQAPGKGLEWVSYISSGSTSFYYADTVKGRFTISRDNAKNSLYLQMNSLRDEDTAVYYCARTNSLLRGFFDAWGQGTTVTVSS
VL: DIVLTQSPDSLAVSLGERATINCRASQSVSSSSYTYLHWYQQKPGQPPKLLIKSASNLESGVPDRFSGSGSGTDFTLTISSLQAEDVAVYYCQHSWEIPLTFGQGTKLEIK
notes: also called h12B12-4
- EC50 (human TPBG-hFc protein): 227 pM
- Kd [3]: 22 pM
- koff [3]: 3.46e-05 s⁻¹
- kon [3]: 1.58e+06 M⁻¹ s⁻¹

B5: Humanized antibody 12B12-5 (antibody, V domains shown)
VH: EVQLVESGGGLVQPGGSLRLSCAASGFTFSNFGMHWVRQAPGKGLEWVSYISSGSTSFYYADTVKGRFTISRDNAKNSLYLQMNSLRDEDTAVYYCSRTNSLLRGFFDAWGQGTTVTVSS
VL: DIVLTQSPDSLAVSLGERATINCRASQSVSSSSYTYLHWYQQKPGQPPKLLIKSASNLESGVPDRFSGSGSGTDFTLTISSLQAEDVAVYYCQHSWEIPLTFGQGTKLEIK
notes: also called h12B12-5
- EC50 (human TPBG-hFc protein): 253 pM
- Kd [3]: 17.9 pM
- koff [3]: 2.1e-05 s⁻¹
- kon [3]: 1.17e+06 M⁻¹ s⁻¹

B6: Humanized antibody 12B12-16 (antibody, V domains shown)
VH: EVQLVESGGGVVQPGRSLRLSCAASGFTFSNFGMHWVRQAPGKGLEWVAYISSGSTSFYYADTVKGRFTISRDNSKNTLYLQMNSLRAEDTAVYYCSRTNSLLRGFFDAWGQGTTVTVSS
VL: DIVLTQTPLSLSVTPGQPASISCRASQSVSSSSYTYLHWYLQKPGQPPQLLIKSASNLESGVPDRFSGSGSGTDFTLKISRVEAEDVGVYYCQHSWEIPLTFGQGTKLEIK
notes: also called h12B12-16
- EC50 (human TPBG-hFc protein): 200 pM
- Kd [3]: 22.9 pM
- koff [3]: 3.65e-05 s⁻¹
- kon [3]: 1.59e+06 M⁻¹ s⁻¹

B7: Humanized Antibody 28D4-3-MMAF (antibody, V domains shown)
VH: EVQLVESGGGLVKPGGSLRLSCAASGFTFSNYVMSWIRQAPGKGLEWVAEISTGGSHTYYSDTVTGRFTISRDNAKKSLYLQMNSLRAEDTAVYYCIMFYYGSSYSMDYWGQGTTVTVSS
VL: DIQMTQSPSSLSASVGDRVTITCRASQDIRNYLNWYQQKPGKAPKLLIYHTSRLHSGVPSRFSGSGSGTDFTFTISSLQPEDIATYYCQQGDTLPLTFGQGTRLEIK
modifications: MC-MMAF on cysteines reduced with TCEP (sites not given), DAR 3.0-5.0 per antibody
- IC50 of cell killing, NCI-H1568 cells (CellTiter-Glo, 5 days) [1]: 61 pM

B8: Humanized antibody 28D4-8 (antibody, V domains shown)
VH: EVQLVESGGGLVKPGGSLRLSCAASGFTFSNYVMSWARQAPGKRLEWVAEISTGGSHTYYSDTVTGRFTISRDNAKKSLYLQMNSLRAEDTAVYYCIMFYYGSSYSMDYWGQGTTVTVSS
VL: DIQMTQSPSSLSASVGDRVTITCRASQDIRNYLNWYQQKPGKAPKLLIYHTSRLHSGVPSRFSGSGSGTDYTFTISSLQPEDIATYYCQQGDTLPLTFGQGTRLEIK
notes: also called h28D4-8
- EC50 (human TPBG-hFc protein): 162 pM
- Kd [3]: 29.6 pM
- koff [3]: 3.01e-05 s⁻¹
- kon [3]: 1.02e+06 M⁻¹ s⁻¹

B9: Humanized Antibody 28D4-4-MMAF (antibody, V domains shown)
VH: EVQLVESGGGLVKPGGSLRLSCAASGFTFSNYVMSWARQAPGKRLEWVAEISTGGSHTYYSDTVTGRFTISRDNAKKSLYLQMNSLRAEDTAVYYCIMFYYGSSYSMDYWGQGTTVTVSS
VL: DIQMTQSPSSLSASVGDRVTITCRASQDIRNYLNWYQQKPGKAPKLLIYHTSRLHSGVPSRFSGSGSGTDFTFTISSLQPEDIATYYCQQGDTLPLTFGQGTRLEIK
modifications: MC-MMAF on cysteines reduced with TCEP (sites not given), DAR 3.0-5.0 per antibody
- IC50 of cell killing, NCI-H1568 cells (CellTiter-Glo, 5 days) [1]: 74 pM

B10: Humanized antibody 28D4-11 (antibody, V domains shown)
VH: EVQLVESGGGLVKPGGSLRLSCAASGFTFSNYVMSWIRQAPGKGLEWVAEISTGGSHTYYSDTVTGRFTISRDNAKKSLYLQMNSLRAEDTAVYYCIMFYYGSSYSMDYWGQGTTVTVSS
VL: DIQMTQSPSSLSASVGDRVTITCRASQDIRNYLNWYQQKPGKTVKLLIYHTSRLHSGVPSRFSGSGSGTDYTFTISSLQPEDIATYFCQQGDTLPLTFGQGTRLEIK
notes: also called h28D4-11
- EC50 (human TPBG-hFc protein): 191 pM

B11: Humanized antibody 28D4-12 (antibody, V domains shown)
VH: EVQLVESGGGLVKPGGSLRLSCAASGFTFSNYVMSWARQAPGKRLEWVAEISTGGSHTYYSDTVTGRFTISRDNAKKSLYLQMNSLRAEDTAVYYCIMFYYGSSYSMDYWGQGTTVTVSS
VL: DIQMTQSPSSLSASVGDRVTITCRASQDIRNYLNWYQQKPGKTVKLLIYHTSRLHSGVPSRFSGSGSGTDYTFTISSLQPEDIATYFCQQGDTLPLTFGQGTRLEIK
notes: also called h28D4-12
- EC50 (human TPBG-hFc protein): 167 pM
- Kd [3]: 38.1 pM
- koff [3]: 3.94e-05 s⁻¹
- kon [3]: 1.03e+06 M⁻¹ s⁻¹

B12: Humanized antibody 28D4-10 (antibody, V domains shown)
VH: EVQLVESGGGLVKPGGSLRLSCAASGFTFSNYVMSWIRQAPGKGLEWVSEISTGGSHTYYSDTVTGRFTISRDNAKNSLYLQMNSLRAEDTAVYYCIMFYYGSSYSMDYWGQGTTVTVSS
VL: DIQMTQSPSSLSASVGDRVTITCRASQDIRNYLNWYQQKPGKTVKLLIYHTSRLHSGVPSRFSGSGSGTDYTFTISSLQPEDIATYFCQQGDTLPLTFGQGTRLEIK
notes: also called h28D4-10
- EC50 (human TPBG-hFc protein): 224 pM
